Experimental findings from patent US20240124586A1 (WUXI BIOLOGICS IRELAND, published 2024) are described below.

Experiment [1] deals with T1, cynomolgus CTLA-4 on engineered 293F cells (W316-293F.cynoPro1.F1.Pool) (cynomolgus).
T1 construct: whole, on cells; also called cynomolgus CTLA-4 engineered cells
As to the kind of experiment: FACS binding to cynomolgus CTLA-4 engineered cells. The protocol:
4-fold titrated Abs with 1% BSA DPBS from 40 μg/ml to 0.00004 μg/ml were added to the cells. Plates were incubated at 4° C. for 1 hour. After wash, […] 1:150 diluted PE-labeled goat anti-human antibody (Jackson 109-115-098) was added to each well and the plates were incubated at 4° C. for 1 hour. The binding of the antibodies onto the cells was tested by flow cytometry and the mean fluorescence intensity (MFI) was analyzed by FlowJo.
In general terms: Flow cytometry measures light scatter and fluorescence of single cells or particles in a stream.

The target of experiment [2] is cynomolgus CTLA-4 protein (cynomolgus, UniProt G7PL88 36-161, Probably biotinylated for streptavidin-PE detection, as described for the human CTLA-4 reagent in paragraph 775; the letters cannot carry this.). In words: FACS competition: blocks cynomolgus CTLA-4 protein binding to human CD80 engineered cells. As to the method: (§1) Competitive FACS was used to test whether the antibodies could block human or cynomolgus CTLA-4 binding to hCD80 on cell surface. […] Then the mixtures of antibody and CTLA-4 were added to the cells and incubated for 1 hour at 4° C. The cells were washed two times with 200 μl FACS washing buffer (DPBS containing 1% BSA). Streptavidin PE (BD Pharmingen-554061) 1 to 600 diluted in FACS buffer was added to the cells and incubated at 4° C. for 1 hour. Additional washing steps were performed two times with 200 μL FACS washing buffer followed by centrifugation at 1500 rpm for 4 minutes at 4° C. Finally, the cells were resuspended in 100 μL FACS washing buffer and fluorescence values were measured by flow cytometry and analyzed by FlowJo.
Chain of cynomolgus CTLA-4 protein (G7PL88 entry or part of it limits assumed): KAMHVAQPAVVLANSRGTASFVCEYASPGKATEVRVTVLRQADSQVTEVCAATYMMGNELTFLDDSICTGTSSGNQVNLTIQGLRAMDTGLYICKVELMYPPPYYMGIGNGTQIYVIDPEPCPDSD

Experiment [3] addresses T2, biotinylated human CTLA-4.ECD.hFc (W316-hPro1.ECD.hFc.Biotin) (human, UniProt P16410 36-161, biotin-labelled (site not stated)).
T2 construct: extracellular domain; In-house protein; also called hCTLA-4.ECD.hFc-Biotin; human CTLA-4 protein
As to the kind of experiment: FACS competition: blocks biotinylated human CTLA-4.ECD.hFc binding to human CD80 engineered cells. As to the method:
as §1

Experiment [4] concerns the target T3, human CD3 on CD3+ Jurkat cells (human, UniProt P07766 23-207; P09693 23-182; P04234 22-171).
T3 construct: whole, on cells; also called CD3 positive Jurkat cells
As to the kind of experiment: FACS on CD3+ Jurkat cells.

Experiment [5] concerns the target T3, human CD3 on CD3+ Jurkat cells. In words: FACS on CD3+ Jurkat cells. This is another data set of the same source.
For experiment [6] the target is unchanged. In words: FACS on CD3+ Jurkat cells. The source holds these as a separate data set.
The target of experiment [7] is T4, human CD19 on CD19+ B cell lines (Ramos, Raji) (human, UniProt P15391 20-556).
T4 construct: whole, on cells; also called CD19+ Ramos cells; CD19+ Raji cells
T4 sequence (looked up): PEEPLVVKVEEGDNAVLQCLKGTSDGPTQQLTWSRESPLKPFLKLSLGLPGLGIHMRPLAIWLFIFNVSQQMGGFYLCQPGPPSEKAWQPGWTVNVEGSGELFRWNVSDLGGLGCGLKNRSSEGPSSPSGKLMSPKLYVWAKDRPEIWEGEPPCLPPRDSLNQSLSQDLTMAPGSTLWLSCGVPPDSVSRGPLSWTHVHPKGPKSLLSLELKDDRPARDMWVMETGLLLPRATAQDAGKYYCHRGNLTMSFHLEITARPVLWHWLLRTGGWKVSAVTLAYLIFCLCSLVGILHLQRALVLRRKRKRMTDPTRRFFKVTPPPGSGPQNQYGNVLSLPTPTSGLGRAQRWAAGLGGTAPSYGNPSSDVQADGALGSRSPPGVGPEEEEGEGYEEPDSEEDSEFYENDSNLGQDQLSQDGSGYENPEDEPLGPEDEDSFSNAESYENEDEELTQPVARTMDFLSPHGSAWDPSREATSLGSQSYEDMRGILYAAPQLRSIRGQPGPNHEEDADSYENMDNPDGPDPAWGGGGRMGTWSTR
In words: FACS on CD19+ Ramos cells.

Experiment [8] addresses T4, human CD19 on CD19+ B cell lines …. As to the kind of experiment: FACS on CD19+ Ramos cells. This is another data set of the same source.
In experiment [9] the target is T5, human PD-1 on engineered CHO-S cells (W305-CHO-S.hPro1.C6) (human, UniProt Q15116 25-288).
T5 construct: whole, on cells; also called human PD-1 engineered cells; PD-1+ cells
T5 sequence (Q15116 25-288, change not shown): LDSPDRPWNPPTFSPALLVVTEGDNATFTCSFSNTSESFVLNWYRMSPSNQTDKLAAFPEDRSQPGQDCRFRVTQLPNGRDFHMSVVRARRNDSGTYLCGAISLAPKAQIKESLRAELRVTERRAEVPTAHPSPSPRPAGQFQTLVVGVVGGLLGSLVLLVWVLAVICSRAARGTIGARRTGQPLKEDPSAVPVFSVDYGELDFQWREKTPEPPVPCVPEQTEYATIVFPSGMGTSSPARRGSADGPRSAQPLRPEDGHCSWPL
As to the kind of experiment: FACS binding to human PD-1 engineered cells. As to the method:
Engineered human PD-1 expressing cells W305-CHO-S.hPro1.C6 were seeded at 1×10⁵ cells/well in U-bottom 96-well plates (COSTAR 3799). Antibodies with 3.16-fold titration in 1% BSA DPBS from 200 nM to 0.002 nM were added to the cells. The plates were incubated at 4° C. for 1 hour. After wash, […] 1:125 diluted PE-labeled goat anti-human antibody (Jackson 109-115-098) was added to each well and the plates were incubated at 4° C. for 1 hour. The binding of the antibodies onto the cells was tested by flow cytometry and the mean fluorescence intensity (MFI) was analyzed by FlowJo.

For experiment [10], the target named is T6, human CTLA-4 on engineered 293F cells (W316-293F.hPro1.FL) (human, UniProt P16410 36-223).
T6 construct: whole, on cells; also called human CTLA-4 engineered cells; CTLA-4+ cells
T6 sequence (P16410 36-223, change not shown): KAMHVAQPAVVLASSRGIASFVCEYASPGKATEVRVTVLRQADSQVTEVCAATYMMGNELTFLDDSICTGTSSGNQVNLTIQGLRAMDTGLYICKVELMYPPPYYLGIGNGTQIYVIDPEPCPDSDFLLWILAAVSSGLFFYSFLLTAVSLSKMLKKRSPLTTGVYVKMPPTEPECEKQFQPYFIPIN
As to the kind of experiment: FACS binding to human CTLA-4 engineered cells. As to the method: 3.16-fold titrated Abs with 1% BSA DPBS from 200 nM to 0.002 nM were added to the cells. Plates were incubated at 4° C. for 1 hour. After wash, […] 1:150 diluted PE-labeled goat anti-human antibody (Jackson 109-115-098) was added to each well and the plates were incubated at 4° C. for 1 hour. The binding of the antibodies onto the cells was tested by flow cytometry and the mean fluorescence intensity (MFI) was analyzed by FlowJo.

The target of experiment [11] is T5, human PD-1 on engineered CHO-S cells …. In words: ELISA binding to human PD-1 (legend says 'engineered cells'; the form of the antigen in the ELISA is not described).
For experiment [12], the target named is T6, human CTLA-4 on engineered 293F cells …. In words: ELISA binding to human CTLA-4 (legend says 'engineered cells'; the form of the antigen in the ELISA is not described). On the technique in general: In an ELISA, binding on a coated surface is turned into a signal by an enzyme label.

Where two headings read alike, the source gives them in different places.

T3 sequence (P07766 23-207, chain 1 of 3): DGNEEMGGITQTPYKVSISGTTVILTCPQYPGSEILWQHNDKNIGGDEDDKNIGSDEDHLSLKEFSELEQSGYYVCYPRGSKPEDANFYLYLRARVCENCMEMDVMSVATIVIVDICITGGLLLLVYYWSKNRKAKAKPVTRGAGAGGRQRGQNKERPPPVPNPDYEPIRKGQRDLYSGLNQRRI
T3 sequence (P09693 23-182, chain 2 of 3): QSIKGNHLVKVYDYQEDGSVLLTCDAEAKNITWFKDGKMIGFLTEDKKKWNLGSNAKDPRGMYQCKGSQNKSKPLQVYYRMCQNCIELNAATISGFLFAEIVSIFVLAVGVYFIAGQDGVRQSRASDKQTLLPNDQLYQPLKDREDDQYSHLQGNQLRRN
T3 sequence (P04234 22-171, chain 3 of 3): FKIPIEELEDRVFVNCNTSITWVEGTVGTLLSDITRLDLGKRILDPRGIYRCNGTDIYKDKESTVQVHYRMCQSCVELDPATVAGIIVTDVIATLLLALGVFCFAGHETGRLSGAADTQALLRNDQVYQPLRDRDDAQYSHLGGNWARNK
T2 sequence (P16410 36-161): as the sequence (G7PL88 entry or part of it limits assumed) above, with N14S, T18I, M106L counted along it

B1: W3162_1.154.8-z35-IgG1K (antibody, V domains shown)
VH: QVQLVQSGAEVKKPGSSVKVSCKASGYTFTNYFMNWVRQAPGQGLEWMGRVDPEQGRADYAEKFKKRVTITADKSTSTAYMELSSLRSEDTAVYYCARRAMDNYGFAYWGQGTLVTVSS
VL: EIVLTQSPDFQSVTPKEKVTITCSANSALSYMYWYQQKPDQSPKLWVHGTSNLASGVPSRFSGSGSGTDFTLTINSLEAEDAATYYCHHWSNTQWTFGGGTKVEIK
notes: anti-CTLA-4 antibody, parent of the T5 arm; also called W3162_1.154.8-z35 (named T5)
As a reminder, the EC50 is the concentration giving half of the maximal effect. High values mean lower potency in that assay, low ones higher potency in that assay. Broadly, the IC50 is the concentration at which inhibition is half-maximal. Read a low IC50 as greater potency. B1: in experiment [1], the EC50 was determined as 0.699 nM and the “Top(MFI)” value amounted to 10800 MFI. The molecule further yielded an IC50 in experiment [2] of 1.47 nM. Also, the IC50 in experiment [3] is 0.594 nM.

B2: anti-CD3 antibody T3 (wild type, IgG1) (antibody, V domains shown)
VH: QVQLVQSGAEVKKPGSSVKVSCKASGFAFTDYYIHWVRQAPGQGLEWMGWISPGNVNTKYNENFKGRVTITADKSTSTAYMELSSLRSEDTAVYYCARDGYSLYYFDYWGQGTLVTVSS
VL: DIVMTQSPDSLAVSLGERATINCKSSQSLLNSRTRKNYLAWYQQKPGQPPKLLIYWASTRQSGVPDRFSGSGSGTDFTLTISSLQAEDVAVYYCTQSHTLRTFGGGTKVEIK
notes: Human IgG1; also called T3-IgG1; native antibody T3
The EC50 (read off the curve) is the concentration giving half of the maximal effect. Lower therefore signals a more potent agent. In the case of B2, the “EC50 (read off the curve)” value in [4] and in experiment [5] was approximately 0.2 nM in each case.

B3: T3-IgG4 (antibody, V domains shown)
VH: QVQLVQSGAEVKKPGSSVKVSCKASGFAFTDYYIHWVRQAPGQGLEWMGWISPGNVNTKYNENFKGRVTITADKSTSTAYMELSSLRSEDTAVYYCARDGYSLYYFDYWGQGTLVTVSS
VL: DIVMTQSPDSLAVSLGERATINCKSSQSLLNSRTRKNYLAWYQQKPGQPPKLLIYWASTRQSGVPDRFSGSGSGTDFTLTISSLQAEDVAVYYCTQSHTLRTFGGGTKVEIK
notes: m1 is the IgG1 form of the same antibody; also called wild type anti-CD3 antibody T3 in IgG4 format
As to B3, the “EC50 (read off the curve)” value in [6] was approximately 0.05 nM.

B4: anti-CD19 antibody U4 (wild type) (antibody, V domains shown)
VH: QMQLVQSGPEVKKPGTSVKVSCKASGYAFTSYNMYWVRQARGQRLEWIGYIDPYNGDTTYNQKFKGRVTITRDMSTSTAYMELSSLRSEDTAVYYCLTTAYAMDYWGQGTLVTVSS
VL: DIQLTQSPSFLSASVGDRVTITCSASSTVNYMHWYQQKPGKAPKLLIYSTSNLASGVPSRFSGSGSGTEFTLTISSLQPEDFATYYCHQWSSYPYTFGQGTKLEIKR
notes: also called native U4; wild type antibody U4
With B4, the entries for the “EC50 (read off the curve)” value in experiment [7] and in experiment [8] were approximately 0.5 nM and approximately 0.3 nM, respectively.

B5: U6T4.G26.IgG4, bispecific anti-PD-1 x CTLA-4 (bispecific antibody)
chain: EVQLLESGGGLVQPGGSLRLSCAASGFTFSSHAMSWVRQAPGKGLEWVSTITGGGGSIYYADSVKGRFTISRDNSKNTLYLQMNSLRAEDTAVYYCAKNRAGEGYFDYWGQGTLVTVLEDLKNVFPPEVAVFEPSEAEISHTQKATLVCLATGFYPDHVELSWWVNGKEVHSGVCTDPQPLKEQPALQDSRYALSSRLRVSATFWQNPRNHFRCQVQFYGLSENDEWTQDRAKPVTQIVSAEAWGRGGGGSGGGGSDIVMTQTPLSLSVTPGQPASISCRSSQSLLNSDGNTYLYWYLQKPGQSPQLLIYLVSKLGSGVPNRFSGSGSGTDFTLKISRVEAEDVGVYYCVQGTHDPWTFGGGTKVEIKRTVAAPSVFIFPPSDEQLKSGTASVVCLLNNFYPREAKVQWKVDNALQSGNSQESVTEQDSKDSTYSLSSTLTLSKADYEKHKVYACEVTHQGLSSPVTKSFNRGEC
light: SYELTQPLSVSVALGQTARITCGGDNIGNKDVHWYQQKPGQAPVLVIYRDSNRPSGIPEGFSGSNSGNTATLTISRAQAGDEADYYCQVWDSIWVFGGGTKLTVLPDIQNPDPAVYQLRDSKSSDKSVCLFTDFDSQTQVSQSKDSDVYITDKCVLDMRSMDFKSNSAVAWSQKSDFACANAFQNSIIPEDTFFPSPESS
heavy: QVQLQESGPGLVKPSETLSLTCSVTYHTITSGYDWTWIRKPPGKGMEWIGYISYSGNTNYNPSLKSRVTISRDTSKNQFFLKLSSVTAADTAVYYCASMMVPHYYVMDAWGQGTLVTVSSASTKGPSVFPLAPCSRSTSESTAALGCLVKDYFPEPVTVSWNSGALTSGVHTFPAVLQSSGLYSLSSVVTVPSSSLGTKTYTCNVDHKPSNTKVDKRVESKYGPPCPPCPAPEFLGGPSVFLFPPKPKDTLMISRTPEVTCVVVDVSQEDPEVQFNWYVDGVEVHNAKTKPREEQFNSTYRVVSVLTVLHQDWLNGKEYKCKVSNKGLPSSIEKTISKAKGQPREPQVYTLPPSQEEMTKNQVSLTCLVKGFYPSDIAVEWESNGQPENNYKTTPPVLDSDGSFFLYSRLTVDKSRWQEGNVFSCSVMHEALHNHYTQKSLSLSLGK
notes: Light-heavy crossed chimeric Fab; first chain is U6-HC fused to T4-LC; also called U6T4 antibody pair in G26 format
Take B5: the EC50 in [9] was 1.84 nM; in experiment [10] it was 59.8 nM; in experiment [11] it was 0.102 nM; in experiment [12], 0.177 nM.
